The target of the test is T1, StrepII-CERT (human, UniProt Q9Y5P4-2 1-598, predominantly hyperphosphorylated (CERT^P); sites not given).
T1 construct: human CERT, UniProt Q9Y5P4-2, codon-optimised synthetic gene in pcDNA-SW; also called Strep-CERT; CERT^P; source: Freestyle 293F cells, transfected, purified (StrepTrap HP, SEC); not shown: StrepII-tag, N-terminal, kept
T1 sequence (looked up): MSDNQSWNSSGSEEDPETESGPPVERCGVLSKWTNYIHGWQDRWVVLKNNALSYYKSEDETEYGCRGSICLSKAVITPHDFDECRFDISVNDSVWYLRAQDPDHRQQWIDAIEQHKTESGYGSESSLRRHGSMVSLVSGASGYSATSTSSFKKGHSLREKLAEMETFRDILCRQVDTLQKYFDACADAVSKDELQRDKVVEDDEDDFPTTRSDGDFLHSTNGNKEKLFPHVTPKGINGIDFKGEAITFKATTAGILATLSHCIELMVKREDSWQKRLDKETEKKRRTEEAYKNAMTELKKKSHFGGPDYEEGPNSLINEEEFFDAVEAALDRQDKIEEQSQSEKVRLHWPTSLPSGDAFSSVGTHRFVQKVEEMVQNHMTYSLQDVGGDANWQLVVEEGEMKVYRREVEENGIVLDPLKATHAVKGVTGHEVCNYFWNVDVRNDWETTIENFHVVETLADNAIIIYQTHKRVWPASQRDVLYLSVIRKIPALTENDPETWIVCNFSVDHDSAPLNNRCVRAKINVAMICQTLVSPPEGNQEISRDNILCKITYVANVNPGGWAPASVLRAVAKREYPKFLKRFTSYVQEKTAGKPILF
Kind of test: pull-down; pUL21-GST (1 μM) on glutathione magnetic beads, 5 μM purified prey, 60 min at room temperature, 20 mM Tris pH 8.5, 200 mM NaCl, 0.1% NP-40, 1 mM DTT, 1 mM EDTA; eluted with glutathione, Coomassie SDS-PAGE. The following applies: both partners purified.

B1: pUL21-GST (natural protein)
chain: MELSYATTMHYRDVVFYVTTDRNRAYFVCGGCVYSVGRPCASQPGEIAKFGLVVRGTGPDDRVVANYVRSELRQRGLQDVRPIGEDEVFLDSVCLLNPNVSSELDVINTNDVEVLDECLAEYCTSLRTSPGVLISGLRVRAQDRIIELFEHPTIVNVSSHFVYTPSPYVFALAQAHLPRLPSSLEALVSGLFDGIPAPRQPLDAHNPRTDVVITGRRAPRPIAGSGAGSGGAGAKRATVSEFVQVKHIDRVGPAGVSPAPPPNNTDSSSLVPGAQDSAPPGPTLRELWWVFYAADRALEEPRADSGLTREEVRAVRGFREQAWKLFGSAGAPRAFIGAALGLSPLQKLAVYYYIIHRERRLSPFPALVRLVGRYTQRHGLYVPRPDDPVLADAINGLFRDALAAGTTAEQLLMFDLLPPKDVPVGSDVQADSTALLRFIESQRLAVPGGVISPEHVAYLGAFLSVLYAGRGRMSAATHTARLTGVTSLVLAVGDVDRLSAFDRGAAGAASRTRAAGYLDVLLTVRLARSQHGQSV
notes: HSV-1 strain KOS pUL21, UniProt F8RG07; the plasmid for the GST fusion is not described; also called Purified recombinant pUL21-GST; source: E. coli T7 Express lysY/Iq, purified (glutathione Sepharose 4B, SEC)
Turning to B1, the binding result is recorded as “binds”.

For the origin of these results see PMC8389370, “pUL21 is a viral phosphatase adaptor that promotes herpes simplex virus replication and spread” (PLoS Pathogens, 2021).
